This is an account of results in patent US20210079067A1 (US Dept. of Health and Human Services, published 2021).

Assay [1] addresses T1, mucin-domain-deleted Zaire ebolavirus GP (Zaire ebolavirus, UniProt Q05320 33-650). The experiment in a line: biolayer interferometry, Fab, pH 7.4, 1:1 model; Fab, BLI, pH 7.4. A general note: Biolayer interferometry detects binding as a change in optical thickness at a sensor tip.
Assay [2] deals with T1, mucin-domain-deleted Zaire ebolavirus GP. The experiment in a line: pH 5.3.
For assay [3] the target is unchanged. The experiment in a line: pH 7.4.
Assay [4] has the same target. The experiment in a line: biolayer interferometry, Fab, pH 5.3, 1:1 model; Fab, BLI, pH 5.3.
The target is the same in assay [5].
The target is the same in assay [6]. In words: biolayer interferometry, mAb, pH 7.4, 1:2 bivalent model (apparent).
For assay [7] the target is unchanged. The experiment in a line: biolayer interferometry, mAb, pH 7.4, 1:2 bivalent model.

B1: S1-4-A09 Fab (Fab, V domains shown)
VH: QVQLQESGPGLVKPSETLSLTCVVSGGILSSFYWNWIRQPPGKGLEWIGNIYYSGSPNYNASFQSRVAISVDTSKNQISLNLKSVTAADTAMYYCVRASRAYLWGSYRPTALDLWGQGSLVTVSS
VL: SYELTQPPSVSVSPGQTATITCSGDKLGDKYTSWFQQRPGQSPLLVIYQDNKRPSGLPARFSGSNSGNTATLTISGTQAMDEADYLCQVWDSGAVFGGGTKLTVL
What is called koff is the first-order rate constant of dissociation. Low values mean slow dissociation, high ones fast dissociation. Usually kon stands for a measure of how fast the partners come together. For the molecule B1, the Kd in assay [1] was 1.04 nM; in assay [4], 2.1 nM. For the same molecule, the dissociation rate constant (koff) in assay [2] is 0.000179 s⁻¹; in assay [3], 0.000136 s⁻¹. Also, the results for the kon in assay [2] and in assay [3] were 85200 M⁻¹ s⁻¹ and 131000 M⁻¹ s⁻¹, respectively.

B2: mAb100 (antibody, V domains shown)
VH: QVQLQESGPGLVKPSDTLSLTCTVSGGSLSSFYWSWIRQPPGKGLEWIGYIYYSGSPNYSPSLESRVTMSVDTTRNQISLKLDSVTAADTAVYYCVRASRSYYWGSYRPTAFDSWGQGTLVTVSS
VL: SYELTQPLSVSVSPGQTAIFTCSGDNLGDKYVCWFQQRPGQSPMLLIYQDNKRPSGIPERFSGSNSGNTATLTISGTQSTDEADYYCQTWDSTVVFGGGTKLTVL
The EC50 (read off the curve) is the concentration that produces a half-maximal response. Low values mean greater potency, high ones weaker potency. With B2, the concentration giving a half-maximal response (EC50 (read off the curve)) in assay [5] was around 0.01 µg/mL. Besides, the Kd in assay [6] was 0.0628 nM. In assay [7], this molecule registered a dissociation rate constant (koff) of 8.91e-06 s⁻¹ and an on-rate (kon) of 143000 M⁻¹ s⁻¹.
